Series [1] deals with the molecule itself. Put plainly: SEC; Superdex 200 prep-grade, 130 mL column, 50 mM TRIS pH 7.5, 100 mM NaCl; native molecular mass of ~210 kDa.
Series [2] concerns the molecule itself. Briefly: crystal structure; thrombin-treated protein, 2.4 M sodium malonate pH 7; space group C2, half of the tetramer in the asymmetric unit; 1.84 Å; oligomer assessed with PISA.

B1: N-isopropylammelide isopropylaminohydrolase AtzC from Pseudomonas sp. strain ADP, His-tagged (enzyme, UniProt O52063 1-403, looked up)
chain: MSKDFDLIIRNAYLSEKDSVYDIGIVGDRIIKIEAKIEGTVKDEIDAKGNLVSPGFVDAHTHMDKSFTSTGERLPKFWSRPYTRDAAIEDGLKYYKNATHEEIKRHVIEHAHMQVLHGTLYTRTHVDVDSVAKTKAVEAVLEAKEELKDLIDIQVVAFAQSGFFVDLESESLIRKSLDMGCDLVGGVDPATRENNVEGSLDLCFKLAKEYDVDIDYHIHDIGTVGVYSINRLAQKTIENGYKGRVTTSHAWCFADAPSEWLDEAIPLYKDSGMKFVTCFSSTPPTMPVIKLLEAGINLGCASDNIRDFWVPFGNGDMVQGALIETQRLELKTNRDLGLIWKMITSEGARVLGIEKNYGIEVGKKADLVVLNSLSPQWAIIDQAKRLCVIKNGRIIVKDEVIVA
notes: AtzC, N-isopropylammelide isopropylaminohydrolase (E.C. 3.5.99.4), Pseudomonas sp. strain ADP; The tag carries a thrombin site; also called wild-type AtzC; tagged AtzC protein; source: E. coli BL21 (λDE3), purified (Ni-NTA, Superdex 200 SEC); not shown: His-tag, N-terminal, kept
One may read the stoichiometry N as the number of molecules, sites or subunits per partner or assembly. Regarding B1, the “stoichiometry N” value in series [1] came to 4.

B2: N-isopropylammelide isopropylaminohydrolase AtzC from Pseudomonas sp. strain ADP, thrombin-treated (His-tag removed) (enzyme, UniProt O52063 1-403, looked up)
chain: MSKDFDLIIRNAYLSEKDSVYDIGIVGDRIIKIEAKIEGTVKDEIDAKGNLVSPGFVDAHTHMDKSFTSTGERLPKFWSRPYTRDAAIEDGLKYYKNATHEEIKRHVIEHAHMQVLHGTLYTRTHVDVDSVAKTKAVEAVLEAKEELKDLIDIQVVAFAQSGFFVDLESESLIRKSLDMGCDLVGGVDPATRENNVEGSLDLCFKLAKEYDVDIDYHIHDIGTVGVYSINRLAQKTIENGYKGRVTTSHAWCFADAPSEWLDEAIPLYKDSGMKFVTCFSSTPPTMPVIKLLEAGINLGCASDNIRDFWVPFGNGDMVQGALIETQRLELKTNRDLGLIWKMITSEGARVLGIEKNYGIEVGKKADLVVLNSLSPQWAIIDQAKRLCVIKNGRIIVKDEVIVA
notes: AtzC, N-isopropylammelide isopropylaminohydrolase (E.C. 3.5.99.4), Pseudomonas sp. strain ADP; unmodified atzC gene (GenBank U66917.2) in pETCC2; tag removed by thrombin in the crystallisation sample without further purification; One Zn2+ ion per monomer; malonate in the active site of the crystal; also called WT; native protein; source: E. coli BL21 (λDE3), purified (Ni-NTA, Superdex 200 SEC), …
For B2, in series [2], the “stoichiometry N” value worked out at 4.

Source of the values: article PMC4577212, “X-Ray Structure and Mutagenesis Studies of the N-Isopropylammelide Isopropylaminohydrolase, AtzC” (PLoS ONE, 2015).
